Reference: patent US20210017555A1, “METHOD FOR PRODUCING 4-AMINOCINNAMIC ACID, AND VECTOR AND HOST CELL USED IN SAME” (JAPAN SCIENCE AND TECHNOLOGY AGENCY, priority 2018, published 2021)

B1: scHbn1: enzyme (nitroreductase) derived from Saccharomyces cerevisiae, SEQ ID NO:9, expressed in E. coli (protein, listed as Saccharomyces cerevisiae)
chain: MSAVATYLKTLTARRTIYALKPELPGEITINDIQSVVQTIIKETPTAFNSQPNRAVILTGETHKKVWDEVTKAIESPAGQKRPASARDEAFGSVIFFTDDKVTEKLKADFPAYAAAFPSFADHTSGAAQINSWVALEAMGLGGHLQHYNGYIKAALPSKIPESWTVQAQLVFGTPAAPPGEKTYIKNDVEIFN
modifications: scHbn1 Polypeptide
B2: nfsA: nitroreductase derived from Escherichia coli, SEQ ID NO: 13, overexpressed in E. coli (protein, listed as Escherichia coli)
chain: MTPTIELICGHRSIRHFTDEPISEAQREAIINSARATSSSSFLQCSSIIRITDKALREELVTLTGGQKHVAQAAEFWVFCADFNRHLQICPDAQLGLAEQLLLGVVDTAMMAQNALIAAESLGLGGVYIGGLRNNIEAVTKLLKLPQHVLPLFGLCLGWPADNPDLKPRLPASILVHENSYQPLDKGALAQYDEQLAEYYLTRGSNNRRDTWSDHIRRTIIKESRPFILDYLHKQGWATR
modifications: nfsA Polypeptide
B3: cdFLDZ: enzyme derived from Clostridium difficile, SEQ ID NO: 11, expressed in E. coli (protein)
chain: MKISSMFTPIRIGSMTVPNRFVVPPMGNNFANTDGTLSETSKAYYLERALGGFGLITIESSVVDKKAKGGPRKPCLYDDSTIDSFKNVIDACHDAGSKVSIQLQHAGSEGNEKVAGHPLKAASAIPASNGRNTPLAITTEEIYELIESYGDAALRAQKAGADAVEVHCAHGYLVSSFISQRTNKRVDEFGGCFENRMRLPRLIIENIRKKVGNSLAILCRINSTDDVPGGIDVHDSSVIAAYLEDCGIDGLHVSRSIHIHDEYMWAPTTLHAGFSAELVTEIKKAVSIPVITVGRYTEPQFAELMVRQGRCDLVAFGRQSLADPEMPNKAKNGKLDEMIPCIACLQGCVPNMFQGKPIACLANPILGHEAELKPAEISKEVLVVGGGVGGMLAAWVCAKRGHNVTLVEKSEVLGGQMRLAAYPPGKGDITNLVRSYISKCNQYGVKICTNTEATVELIKEKSPDVVIIATGATPLVLPIPGINDSGLIHAVDLLDGKKSCGKKVLVVGGGMVGCEVAAFLGEQEHEVTVIELREEVGADVISEHRKFLMNDFENYNIHTITGAKVSKFYDDGVDYLLTDGTEHDLKGFDSVVLAMGSRNYDPLSEVIKEVVKETYIVGDAVKARRALDATKEAFEVALNI
modifications: Clostridium difficile; cdFLDZ Polypeptide
B4: RgPAL: phenylalanine ammonia-lyase derived from yeast Rhodotorula glutinis JN-1, SEQ ID NO: 5, expressed in E. coli (protein, listed as Rhodotorula glutinis)
chain: MAPSVDSIATSVANSLSNGLAGDLRKKTSGAGSLLPTTETTQIDIVERILADAGATDQIKLDGYTLTLGDVVGAARRGRTVKVADSPQIREKIDASVEFLRTQLDNSVYGVTTGFGGSADTRTEDAISLQKALLEHQLCGVLPTSMDGFALGRGLENSLPLEVVRGAMTIRVNSLTRGHSAVRIVVLEALTNFLNHGITPIVPLRGTISASGDLSPLSYIAASITGHPDSKVHVDGQIMSAQEAIALKGLQPVVLGPKEGLGLVNGTAVSASMATLALTDAHVLSLLAQANTALTVEAMVGHAGSFHPFLHDVTRPHPTQIEVARNIRTLLEGSKYAVHHETEVKVKDDEGILRQDRYPLRCSPQWLGPLVSDMIHAHSVLSLEAGQSTTDNPLIDLENKMTHHGGAFMASSVGNTMEKTRLAVALMGKVSFTQLTEMLNAGMNRALPSCLAAEDPSLSYHCKGLDIAAAAYTSELGHLANPVSTHVQPAEMGNQAINSLALISARRTAEANDVLSLLLATHLYCVLQAVDLRAMEFEHTKEFEPMVTDLLKQHFGALATADVEDKVRKSIYKRLQQNNSYDLEQRWHDTFSVATGAVVEALAGNEVSLASLNAWKVACAEKAIALTRTVRDSFWAAPSSASPALKYLSPRTRILYSFVREDVGVKARRGDVYLGKQEVTIGTNVSRIYEAIKDGRIAPVLVKMMA
modifications: RgPAL Polypeptide
B5: nfsB: nitroreductase derived from Escherichia coli, SEQ ID NO:15, overexpressed in E. coli (protein, listed as Escherichia coli)
chain: MDIISVALKRHSTKAFDASKKLTPEQAEQIKTLLQYSPSSTNSQPWHFIVASTEEGKARVAKSAAGNYVFNERKMLDASHVVVFCAKTAMDDVWLKLVVDQEDADGRFATPEAKAANDKGRKFFADMHRKDLHDDAEWMAKQVYLNVGNFLLGVAALGLDAVPIEGFDAAILDAEFGLKEKGYTSLVVVPVGHHSVEDFNATLPKSRLPQNITLTEV
modifications: nfsB Polypeptide
B6: scFrm2: enzyme (nitroreductase) derived from Saccharomyces cerevisiae, SEQ ID NO:7, expressed in E. coli (protein, listed as Saccharomyces cerevisiae)
chain: MSPTGNYLNAITNRRTIYNLKPELPQGVGLDDVKRTVHVILKNTPTAFNSQVNRAVIIVGDTHKRIWDAVASAMPTAEAKKRPESCRDEAYGSVIFFTDEGPTEKLQRDFPALAAAFPTCAAHTTGAVQIQSWTALELLGLGANLQHYNDYVKSALPQDVPIAWTVQSQLVFGVPTALPEEKTFINNVINVYH
modifications: scFrm2 Polypeptide

What was measured:
[1] = Resting-cell reaction of scFrm2-, scHbn1-, cdFLDZ-producing E. coli, 4-nitrocinnamic acid to 4-aminocinnamic acid; type: cell-based, Escherichia coli; settings: resting cells, 2.5 mM 4-nitrocinnamic acid, 30° C., 12 hours, pH 7.0; versus control E. coli
Description: Each of the scFrm2-, scHbn1-, and cdFLDZ-producing Escherichia coli strains were precultured using 3 mL of LB medium containing 30 mg/L kanamycin sulfate at 28° C. for 16 hours with shaking at 300 rpm. 1 mL of this preculture liquid was inoculated to 100 mL of LB medium containing 30 mg/L kanamycin sulfate, cultured at 30° C. for 4 hours with shaking at 120 rpm, and after 0.1 mM IPTG was added, incubated further at 20° C. for 12 hours. The obtained bacterial cells were washed twice with a reaction buffer (100 mM potassium dihydrogen phosphate (KH2PO4), 1 mM magnesium sulfate (MgSO4), 0.5 mM thiamine chloride, pH 7.0).
The resting cells thus obtained were suspended in a reaction buffer containing 2.5 mM 4-nitrocinnamic acid, and reacted at 30° C. for 12 hours with shaking at 300 rpm. After the reaction, the reaction supernatant was collected to quantify 4-aminocinnamic acid. The supernatant was transferred to a centrifuge tube, collected by centrifugation, and the reaction product was quantified using the above HPLC.
(§1) The same experiment was also performed using the host Escherichia coli as a control.

[2] = Enzyme activities of nfsA and nfsB in cell reactions, 4-nitrocinnamic acid to 4-aminocinnamic acid; type: cell-based, Escherichia coli; settings: 2 g/L 4-nitrocinnamic acid, 2% glycerol, pH 8.0, 37° C., 18 hours
Description: Each of the nfsA- and nfsB-producing Escherichia coli strains was precultured using 5 mL of LB medium containing 40 mg/L of streptomycin sulfate at 28° C. for 16 hours with shaking at 300 rpm. 1 mL of this pre-cultured solution was inoculated to 100 mL of TB medium containing 80 mg/L streptomycin sulfate, cultured at 30° C. for 4 hours with shaking at 120 rpm. 0.1 mM IPTG was added, and the culture was further incubated at 30° C. for another 18 hours.
The pH of the culture medium containing the obtained bacterial cells was adjusted to 8.0 by addition of 2N NaOH. 2 g/L of 4-nitrocinnamic acid and 2% final concentration of glycerol were suspended in this culture medium, and the reaction was carried out at 37° C. for 18 hours with shaking at 120 rpm. After the reaction, the reaction solution supernatant was collected to quantify 4-aminocinnamic acid. Specifically, the supernatant was transferred to a centrifuge tube, collected by centrifugation, and the reaction product was quantified using the above HPLC.
The same experiment was also carried out using the host Escherichia coli as a control.

[3] = Deammonase activity of purified enzymes by absorptiometry; type: biochemical; settings: purified recombinant enzyme 2 mg/mL, 50 mM Tris-HCl pH 8.6, 0.3 to 9.6 mM substrate, 380 nm, 10 minutes
Description: • Apparatus: BECKMAN COULTER DU800 UV/Vis Spectrophotometer • Amount of enzyme: 2mg/mL • Buffer solution: 50mM Tris-HCl buffer (pH=8.6) • Concentration of substrate: 0.3mM to 9.6mM • Volume: 200μL • Measurement wavelength: From 4-nitrophenylalanine to 380 nm 4-nitrocinnamic acid: From phenylalanine to 305 nm cinnamic acid: • Measurement period: 10 minutes • Measurement temperature: 25° C.
Each of the CamPAL-, LiePAL-, and RgPAL-producing Escherichia coli strains was inoculated to 5 mL of LB medium containing 30 mg/L kanamycin sulfate, and cultured at 28° C. for 16 hours (hereinafter also may be referred to as “preculture”). […]
The enzyme activity was measured and quantified by measuring the absorbance of the reaction product at the absorption wavelength for 10 minutes using an absorptiometer.
Specifically, regarding the deammonase activity for phenylalanine, 2 mg/mL of each of the above enzymes was added to 50 mM Tris-HCl buffer (pH=8.6) containing 0.3 to 9.6 mM phenylalanine to cause reaction, and the change in absorbance at a wavelength of 305 nm resulting from the formation of cinnamic acid was measured for 10 minutes. […]

[4] = Resting-cell reaction of PAL-producing E. coli, 4-nitrophenylalanine to 4-nitrocinnamic acid; type: cell-based, Escherichia coli; settings: resting cells, 24 hours, 28° C., pH 8.5, 20 mM 4-nitrophenylalanine; versus control Escherichia coli
Description: The CamPAL-, LiePAL-, and RgPAL-producing Escherichia coli strains mentioned above were precultured using 3 mL of LB medium containing 40 mg/L kanamycin sulfate at 28° C. for 16 hours with stirring at 300 rpm. 1 mL of this pre-cultured liquid was inoculated to 100 mL of LB medium containing 40 mg/L of kanamycin sulfate, cultured at 30° C. for 4 hours with shaking at 120 rpm, and after the addition of 0.5 mM of IPTG, incubated further for 20 hours. The obtained bacterial cells were washed twice with a reaction buffer (100 mM Tris-HCl buffer, pH 8.5).
The resting cells obtained were suspended in a reaction buffer and reacted at 28° C. with shaking at 300 rpm. 20 mM of 4-nitrophenylalanine was added to the medium every 24 hours while the reaction was continued. The reaction supernatant was periodically collected to quantify 4-nitrophenylalanine and 4-nitrocinnamic acid.
The supernatant was transferred to a centrifuge tube, collected by centrifugation, and the reaction product was quantified using high performance liquid chromatography (HPLC).
as §1

| Molecule | amount of 4-aminocinnamic acid in the medium supernatant [1] | 4-aminocinnamic acid converted from 4-nitrocinnamic acid [2] [g/L] | other results |
| --- | --- | --- | --- |
| B1 | remarkably increased as compared with the control E. coli | – | – |
| B2 | – | 0.26 | – |
| B3 | remarkably increased as compared with the control E. coli | – | – |
| B4 | – | – | capacity to convert 4-nitrophenylalanine to 4-nitrocinnamic acid [3]: have a capacity to covert 4-nitrophenylalanine to 4-nitrocinnamic acid; amount of 4-nitrocinnamic acid in the reaction supernatant [4]: significantly higher than that of the control Escherichia coli |
| B5 | – | 0.76 | – |
| B6 | remarkably increased as compared with the control E. coli | – | – |
